Results from patent US20160031967A1 (Affibody, published 2016).
Where a chain is given by its changes, count along the chain named.

B1: Z13586-ABD fusion (designed binder)
chain: AQHDEALEVDAKYAKELKDAGHEIRWLPNLTFDQRVAFIHKLRDDPSQSSELLSEAKKLNDSQAPKVDYVLAEAKVLANRELDKYGVSDYYKNLINNAKTVEGVKALIDEILAALPYVPG
notes: domain: GA3; periplasmic Z-ABD fusion
B2: Z13783-ABD fusion (designed binder)
chain: B1 chain with L17I, K18E, D19Q
notes: as for B1

Experiments:
[1] = molecular target: T1, human FcRn (Biorbyt, cat. no. orb84388) (human, UniProt P55899 24-297; P61769 21-119, limits assumed); experiment: ELISA titration of biotinylated human FcRn, pH 7.4
T1 construct: Bought protein; Biotinylated in AlphaLISA and ELISA; also called biotinylated human FcRn
Method: (§1) ELISA KD analysis of FcRn binding Z variants: A selection of FcRn binders was subjected to an analysis of the response against a dilution series of biotinylated human FcRn using ELISA at both pH 6.0 and pH 7.4 as described above. […] As a background control, all Z variants were also assayed with no target protein added. […] Data were analyzed using GraphPad Prism 5 and non-linear regression and KD values (the half maximal effective concentration) were calculated.
(§2) Periplasm samples were incubated with a serial dilution of biotinylated human FcRn.

[2] = molecular target: T1, human FcRn (Biorbyt, cat. no. orb84388); experiment: ELISA titration of biotinylated human FcRn, pH 6.0
Method: as §1, §2

T1 sequence (P55899 24-297 limits assumed, chain 1 of 2): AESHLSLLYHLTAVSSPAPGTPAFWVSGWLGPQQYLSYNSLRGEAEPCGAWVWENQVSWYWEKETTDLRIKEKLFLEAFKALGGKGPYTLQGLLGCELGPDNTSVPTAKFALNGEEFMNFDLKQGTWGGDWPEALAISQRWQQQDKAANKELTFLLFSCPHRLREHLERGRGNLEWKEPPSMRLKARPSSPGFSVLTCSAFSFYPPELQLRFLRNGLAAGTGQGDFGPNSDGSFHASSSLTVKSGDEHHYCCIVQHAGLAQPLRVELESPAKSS
T1 sequence (P61769 21-119 limits assumed, chain 2 of 2): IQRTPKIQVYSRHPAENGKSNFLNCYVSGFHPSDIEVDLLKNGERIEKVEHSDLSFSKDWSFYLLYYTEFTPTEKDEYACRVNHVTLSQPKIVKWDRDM

Binder | Kd [1] [nM] | Kd [2] [nM]
B1 | 2.3 | 1.2
B2 | 2.2 | 1.4
